In PMC9482650, “Quantitative fragmentomics allow affinity mapping of interactomes” (Nature Communications, 2022):

T1: ARHGAP21, Q5T5U3
T1 sequence (Q5T5U3 45-169, limits assumed, looked up): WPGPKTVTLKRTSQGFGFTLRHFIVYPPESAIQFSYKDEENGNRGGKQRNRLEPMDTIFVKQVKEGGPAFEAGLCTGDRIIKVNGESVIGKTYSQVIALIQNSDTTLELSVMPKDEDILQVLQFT

T2: FRMPD1, Q5SYB0
T2 sequence (Q5SYB0 52-145, limits assumed, looked up): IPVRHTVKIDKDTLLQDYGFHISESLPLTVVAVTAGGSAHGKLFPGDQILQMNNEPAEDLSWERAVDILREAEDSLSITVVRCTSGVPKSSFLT

T3: GRIP1_5, Q9Y3R0
T3 sequence (Q9Y3R0 568-668, limits assumed, looked up): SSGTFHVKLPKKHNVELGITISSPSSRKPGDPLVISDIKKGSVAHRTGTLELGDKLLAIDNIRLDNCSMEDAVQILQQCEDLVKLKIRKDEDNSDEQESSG

T4: GRIP1_7, Q9Y3R0
T4 sequence (Q9Y3R0 999-1096, limits assumed, looked up): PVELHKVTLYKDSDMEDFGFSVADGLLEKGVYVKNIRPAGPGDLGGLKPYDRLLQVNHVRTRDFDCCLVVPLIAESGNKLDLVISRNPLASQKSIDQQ

T5: LIN7A, O14910
T5 sequence (O14910 103-200, limits assumed, looked up): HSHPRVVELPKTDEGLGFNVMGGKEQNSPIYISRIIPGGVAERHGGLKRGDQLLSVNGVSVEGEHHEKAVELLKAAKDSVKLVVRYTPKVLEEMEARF

T6: MPP6, Q9NZW5
T6 sequence (Q9NZW5 125-219, limits assumed, looked up): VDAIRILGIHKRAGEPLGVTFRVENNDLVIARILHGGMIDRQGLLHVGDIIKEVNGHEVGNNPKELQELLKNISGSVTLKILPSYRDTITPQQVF

T7: MPP7, Q5T2T1
T7 sequence (Q5T2T1 134-230, limits assumed, looked up): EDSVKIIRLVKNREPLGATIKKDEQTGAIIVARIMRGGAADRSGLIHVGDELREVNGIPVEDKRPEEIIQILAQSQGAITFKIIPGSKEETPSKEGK

T8: PCLO, Q9Y6V0
T8 sequence (Q9Y6V0 4491-4600, limits assumed, looked up): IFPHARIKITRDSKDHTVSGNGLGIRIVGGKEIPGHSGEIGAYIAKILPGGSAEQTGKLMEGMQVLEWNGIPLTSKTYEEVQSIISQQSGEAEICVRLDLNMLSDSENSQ

T9: PDZRN3_1, Q9UPQ7
T9 sequence (Q9UPQ7 244-349, limits assumed, looked up): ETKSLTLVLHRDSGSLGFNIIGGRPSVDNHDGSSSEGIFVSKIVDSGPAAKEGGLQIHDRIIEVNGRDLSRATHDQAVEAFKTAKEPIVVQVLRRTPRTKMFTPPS

T10: PTPN13_1, Q12923
T10 sequence (Q12923 1088-1188, limits assumed, looked up): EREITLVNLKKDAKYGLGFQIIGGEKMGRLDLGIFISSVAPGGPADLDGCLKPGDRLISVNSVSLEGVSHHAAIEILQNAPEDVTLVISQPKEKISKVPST

T11: SYNJ2BP, P57105
T11 sequence (P57105 8-110, limits assumed, looked up): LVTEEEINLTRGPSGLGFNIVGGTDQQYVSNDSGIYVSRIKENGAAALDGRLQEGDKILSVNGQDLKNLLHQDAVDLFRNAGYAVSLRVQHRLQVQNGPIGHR


Tests used:
Test in all cases: holdup assay
Parameters in all cases: key: below the threshold = too weak to quantify, mostly under pKd 3.1 to 4
Details in all cases: plain residues with an end cap or a label only (N-terminal biotin on a linker: ado-ado)
ARHGAP21, Q5T5U3 = biological target: T1, ARHGAP21, Q5T5U3
DLG4_1, P78352 = biological target: DLG4_1, P78352
Chain of DLG4_1, P78352 (P78352 62-152): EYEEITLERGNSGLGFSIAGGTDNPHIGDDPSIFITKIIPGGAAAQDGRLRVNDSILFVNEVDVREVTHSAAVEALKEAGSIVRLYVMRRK

FRMPD1, Q5SYB0 = biological target: T2, FRMPD1, Q5SYB0
FRMPD4, Q14CM0 = biological target: FRMPD4, Q14CM0
Chain of FRMPD4, Q14CM0 (Q14CM0 67-160): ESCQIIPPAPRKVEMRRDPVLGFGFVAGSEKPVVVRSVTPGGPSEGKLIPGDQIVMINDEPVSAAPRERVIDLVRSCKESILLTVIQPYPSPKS

GRASP, Q7Z6J2 = biological target: GRASP, Q7Z6J2
Chain of GRASP, Q7Z6J2 (Q7Z6J2 96-193): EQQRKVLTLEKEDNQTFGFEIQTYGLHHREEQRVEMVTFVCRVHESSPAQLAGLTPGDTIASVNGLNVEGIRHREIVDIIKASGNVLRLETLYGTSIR

GRID2IP_1, A4D2P6 = biological target: GRID2IP_1, A4D2P6
Chain of GRID2IP_1, A4D2P6 (A4D2P6 1-87): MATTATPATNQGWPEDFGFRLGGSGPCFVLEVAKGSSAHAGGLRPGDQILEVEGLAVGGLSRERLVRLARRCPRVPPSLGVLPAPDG

GRIP1_5, Q9Y3R0 = biological target: T3, GRIP1_5, Q9Y3R0
GRIP1_7, Q9Y3R0 = biological target: T4, GRIP1_7, Q9Y3R0
GRIP2_3, Q9C0E4 = biological target: GRIP2_3, Q9C0E4
Chain of GRIP2_3, Q9C0E4 (Q9C0E4 238-339): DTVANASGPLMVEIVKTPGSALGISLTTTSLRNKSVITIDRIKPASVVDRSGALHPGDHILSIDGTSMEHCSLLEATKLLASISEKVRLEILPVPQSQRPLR

GRIP2_6, Q9C0E4 = biological target: GRIP2_6, Q9C0E4
Chain of GRIP2_6, Q9C0E4 (Q9C0E4 648-740): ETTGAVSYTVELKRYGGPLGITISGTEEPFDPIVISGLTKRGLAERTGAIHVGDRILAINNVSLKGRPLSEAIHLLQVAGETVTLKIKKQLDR

HTRA1, Q92743 = biological target: HTRA1, Q92743
Chain of HTRA1, Q92743 (Q92743 360-477): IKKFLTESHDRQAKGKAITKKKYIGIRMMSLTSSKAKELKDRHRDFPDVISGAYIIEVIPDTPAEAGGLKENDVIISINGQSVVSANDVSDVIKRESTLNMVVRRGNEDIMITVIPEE

Inadl_3, Q8NI35 = biological target: Inadl_3, Q8NI35
Chain of Inadl_3, Q8NI35 (Q8NI35 359-469): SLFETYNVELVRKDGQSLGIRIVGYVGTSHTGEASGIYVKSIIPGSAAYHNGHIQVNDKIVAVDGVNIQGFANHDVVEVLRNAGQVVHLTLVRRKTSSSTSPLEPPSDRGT

Inadl_4, Q8NI35 = biological target: Inadl_4, Q8NI35
Chain of Inadl_4, Q8NI35 (Q8NI35 547-651): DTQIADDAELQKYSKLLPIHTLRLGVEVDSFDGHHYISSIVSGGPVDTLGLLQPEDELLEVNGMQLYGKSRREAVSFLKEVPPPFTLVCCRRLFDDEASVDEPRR

LIN7A, O14910 = biological target: T5, LIN7A, O14910
MAGI1_1, Q96QZ7 = biological target: MAGI1_1, Q96QZ7
Chain of MAGI1_1, Q96QZ7 (Q96QZ7 1-106): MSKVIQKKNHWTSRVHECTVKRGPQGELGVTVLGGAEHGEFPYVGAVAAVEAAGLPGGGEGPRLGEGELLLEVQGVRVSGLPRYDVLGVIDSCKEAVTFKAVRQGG

MAGI1_2, Q96QZ7 = biological target: MAGI1_2, Q96QZ7
Chain of MAGI1_2, Q96QZ7 (Q96QZ7 456-580): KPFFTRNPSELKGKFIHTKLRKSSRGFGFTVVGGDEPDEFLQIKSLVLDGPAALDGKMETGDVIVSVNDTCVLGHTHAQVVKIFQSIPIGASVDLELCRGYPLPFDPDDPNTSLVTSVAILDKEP

MAGI2_3, Q86UL8 = biological target: MAGI2_3, Q86UL8
Chain of MAGI2_3, Q86UL8 (Q86UL8 600-682): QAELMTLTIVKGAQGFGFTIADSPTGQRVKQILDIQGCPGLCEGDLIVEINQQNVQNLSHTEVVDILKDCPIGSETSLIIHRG

MAGI2_5, Q86UL8 = biological target: MAGI2_5, Q86UL8
Chain of MAGI2_5, Q86UL8 (Q86UL8 915-1017): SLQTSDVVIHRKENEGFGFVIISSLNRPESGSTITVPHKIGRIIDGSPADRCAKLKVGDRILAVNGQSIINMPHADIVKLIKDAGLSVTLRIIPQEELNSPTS

MAST2, Q6P0Q8 = biological target: MAST2, Q6P0Q8
Chain of MAST2, Q6P0Q8 (Q6P0Q8 1099-1202): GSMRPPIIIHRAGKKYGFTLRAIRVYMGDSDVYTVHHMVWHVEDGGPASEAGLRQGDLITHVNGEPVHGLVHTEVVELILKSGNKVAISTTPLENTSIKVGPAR

MPP6, Q9NZW5 = biological target: T6, MPP6, Q9NZW5
MPP7, Q5T2T1 = biological target: T7, MPP7, Q5T2T1
NHERF4_2, Q86UT5 = biological target: NHERF4_2, Q86UT5
Chain of NHERF4_2, Q86UT5 (Q86UT5 220-308): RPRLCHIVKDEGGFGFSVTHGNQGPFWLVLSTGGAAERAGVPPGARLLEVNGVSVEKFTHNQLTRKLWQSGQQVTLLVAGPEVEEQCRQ

PCLO, Q9Y6V0 = biological target: T8, PCLO, Q9Y6V0
PDZRN3_1, Q9UPQ7 = biological target: T9, PDZRN3_1, Q9UPQ7
PTPN13_1, Q12923 = biological target: T10, PTPN13_1, Q12923
SCRIB_2, Q14160 = biological target: SCRIB_2, Q14160
Chain of SCRIB_2, Q14160 (Q14160 857-960): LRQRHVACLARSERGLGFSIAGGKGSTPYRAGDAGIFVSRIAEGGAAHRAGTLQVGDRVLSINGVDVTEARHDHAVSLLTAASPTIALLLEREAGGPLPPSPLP

SYNJ2BP, P57105 = biological target: T11, SYNJ2BP, P57105

Binder | pKd (ARHGAP21, Q5T5U3) | pKd (DLG4_1, P78352) | pKd (FRMPD1, Q5SYB0) | pKd (FRMPD4, Q14CM0) | pKd (GRASP, Q7Z6J2) | pKd (GRID2IP_1, A4D2P6) | pKd (GRIP1_5, Q9Y3R0) | pKd (GRIP1_7, Q9Y3R0) | pKd (GRIP2_3, Q9C0E4) | pKd (GRIP2_6, Q9C0E4) | pKd (HTRA1, Q92743) | pKd (Inadl_3, Q8NI35) | pKd (Inadl_4, Q8NI35) | pKd (LIN7A, O14910) | pKd (MAGI1_1, Q96QZ7) | pKd (MAGI1_2, Q96QZ7) | pKd (MAGI2_3, Q86UL8) | pKd (MAGI2_5, Q86UL8) | pKd (MAST2, Q6P0Q8) | pKd (MPP6, Q9NZW5) | also measured
CLREWCDAFL [BANF1, O75531] | 4.41 | below the threshold | below the threshold | 4.72 | 3.51 | below the threshold | below the threshold | below the threshold | below the threshold | below the threshold | 5.01 | 4.23 | below the threshold | below the threshold | below the threshold | below the threshold | below the threshold | below the threshold | 5.52 | below the threshold | pKd (MPP7, Q5T2T1): below the threshold; pKd (NHERF4_2, Q86UT5): below the threshold; pKd (PCLO, Q9Y6V0): below the threshold; pKd (PDZRN3_1, Q9UPQ7): below the threshold; pKd (PTPN13_1, Q12923): 3.58; pKd (SCRIB_2, Q14160): below the threshold; pKd (SYNJ2BP, P57105): below the threshold
GSGAVEMESV [AQP6, Q13520] | 3.91 | below the threshold | below the threshold | below the threshold | below the threshold | below the threshold | below the threshold | below the threshold | below the threshold | below the threshold | below the threshold | below the threshold | below the threshold | below the threshold | below the threshold | below the threshold | below the threshold | below the threshold | 4.03 | below the threshold | pKd (MPP7, Q5T2T1): below the threshold; pKd (NHERF4_2, Q86UT5): below the threshold; pKd (PCLO, Q9Y6V0): below the threshold; pKd (PDZRN3_1, Q9UPQ7): below the threshold; pKd (PTPN13_1, Q12923): below the threshold; pKd (SCRIB_2, Q14160): below the threshold; pKd (SYNJ2BP, P57105): below the threshold
LGRSTPQSEV [DGKH, Q86XP1] | 4.1 | 3.85 | below the threshold | below the threshold | 3.51 | below the threshold | below the threshold | below the threshold | below the threshold | below the threshold | below the threshold | below the threshold | below the threshold | below the threshold | below the threshold | below the threshold | below the threshold | below the threshold | 4.85 | 3.71 | pKd (MPP7, Q5T2T1): below the threshold; pKd (NHERF4_2, Q86UT5): below the threshold; pKd (PCLO, Q9Y6V0): below the threshold; pKd (PDZRN3_1, Q9UPQ7): below the threshold; pKd (PTPN13_1, Q12923): below the threshold; pKd (SCRIB_2, Q14160): below the threshold; pKd (SYNJ2BP, P57105): 4.49

The next lines start with results.

pKd (ARHGAP21, Q5T5U3) | pKd (DLG4_1, P78352) | pKd (FRMPD1, Q5SYB0) | pKd (FRMPD4, Q14CM0) | pKd (GRASP, Q7Z6J2) | pKd (GRID2IP_1, A4D2P6) | pKd (GRIP1_5, Q9Y3R0) | pKd (GRIP1_7, Q9Y3R0) | pKd (GRIP2_3, Q9C0E4) | pKd (GRIP2_6, Q9C0E4) | pKd (HTRA1, Q92743) | pKd (Inadl_3, Q8NI35) | pKd (Inadl_4, Q8NI35) | pKd (LIN7A, O14910) | pKd (MAGI1_1, Q96QZ7) | pKd (MAGI1_2, Q96QZ7) | pKd (MAGI2_3, Q86UL8) | pKd (MAGI2_5, Q86UL8) | pKd (MAST2, Q6P0Q8) | pKd (MPP6, Q9NZW5) | Binder | also measured
below the threshold | 4.68 | below the threshold | below the threshold | below the threshold | below the threshold | below the threshold | below the threshold | below the threshold | below the threshold | 3.82 | 3.68 | below the threshold | below the threshold | below the threshold | 4.05 | 4.11 | 4.96 | 5.07 | below the threshold | RRISSLESEV [GRIN2C, Q14957] | pKd (MPP7, Q5T2T1): below the threshold; pKd (NHERF4_2, Q86UT5): below the threshold; pKd (PCLO, Q9Y6V0): below the threshold; pKd (PDZRN3_1, Q9UPQ7): 4.24; pKd (PTPN13_1, Q12923): below the threshold; pKd (SCRIB_2, Q14160): 4.28; pKd (SYNJ2BP, P57105): 5.38
4.08 | 4.88 | below the threshold | below the threshold | 4.04 | 3.89 | below the threshold | below the threshold | below the threshold | below the threshold | 4.13 | below the threshold | below the threshold | below the threshold | below the threshold | 4.21 | below the threshold | below the threshold | 4.48 | below the threshold | PPYRHRNTVV [ERBB4, Q15303] | pKd (MPP7, Q5T2T1): below the threshold; pKd (NHERF4_2, Q86UT5): below the threshold; pKd (PCLO, Q9Y6V0): below the threshold; pKd (PDZRN3_1, Q9UPQ7): 3.54; pKd (PTPN13_1, Q12923): below the threshold; pKd (SCRIB_2, Q14160): below the threshold; pKd (SYNJ2BP, P57105): 4.36
